Test results as given in patent US20240368275A1 (ELPIS BIOPHARMACEUTICALS, published 2024).
Values belong to the binder of their own block, whether it stands above or below them.

Tests used:
[1] = molecular target: T1, human CD3E HIS tagged protein (human, UniProt P07766 23-126); experiment: SPR Biacore T200, bispecific captured on Protein A chip, CD3E-HIS injected
T1 construct: not shown: HIS tag
Experimental: (§1) The assay was run with Biacore T200 control software version 2.0. For each cycle, 1 ug/mL of anti-hNectin4/CD3 antibody was captured for 60 seconds at flow rate of 10 ul/min on flow cell 2 in 1×HBSP buffer on Protein A sensor chip. 2-fold serial diluted CD3E-HIS or hNectin4-HIS tagged protein was injected onto both reference flow cell 1 and anti-Nectin4/CD3 bispecific captured flow cell 2 for 150 seconds at flow rate of 30 ul/mins followed by wash for 300 seconds. The flow cells were then regenerated with Glycine pH2 for 60 seconds at flow rate of 30 ul/mins. 8 concentration points from 100 nM-0 nM (CD3E-HIS) or 300 nM-0 nM (Nectin4-HIS) was assayed per anti-Nectin4 IgG in a 96 well plate. The kinetics of Anti-Nectin4/CD3 bispecific binding to CD3E and Nectin4 proteins was analyzed with Biacore T200 evaluation software version 3.0. The specific binding response unit was derived from subtraction of binding to reference flow cell 1 from antibody captured flow cell 2. Table 10 below listed the kinetics results. ND means not determined. NA means data not available.

[2] = molecular target: T2, CD3 on Jurkat cells (UniProt P07766 23-207, limits assumed); experiment: cell-based or functional assay
T2 sequence (P07766 23-207 limits assumed): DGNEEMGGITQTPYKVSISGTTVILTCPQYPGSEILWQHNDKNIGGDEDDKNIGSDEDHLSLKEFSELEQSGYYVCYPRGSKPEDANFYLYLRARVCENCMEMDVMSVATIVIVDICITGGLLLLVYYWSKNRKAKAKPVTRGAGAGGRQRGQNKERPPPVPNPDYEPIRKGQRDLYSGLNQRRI

[3] = molecular target: T2, CD3 on Jurkat cells; experiment: flow cytometry on Jurkat cells
Experimental: Jurkat cells were plated at 100,000 cells/well in a 96-well plate with 50 μL of full media. Anti-Nectin4/CD3 antibodies were 3-fold serial titrated from 20 nM. 50 μL was added to the cells and incubated for 1 hours at room temperature with shaking. Samples were washed one time with flow buffer. […] Samples were washed once with flow buffer. Samples were stained with 100 uL Zombie Fixable Viability Dyes at 1:800 dilution per well and incubated in dark at room temperature for 30 mins. Samples were spun down at 1300 rpm for 5 minutes and washed once with 200 uL flow buffer. Reconstituted samples in 200 uL of flow buffer and read on Attune NxT cytometer. EC50 values for CD3 binding were calculated using Prism 8.1 software.

[4] = molecular target: T3, human Nectin4-HIS tagged recombinant protein (human, UniProt Q96NY8 32-349); experiment: SPR Biacore T200, bispecific captured on Protein A chip, hNectin4-HIS injected
T3 construct: also called hNectin4-HIS; Nectin4 HIS tagged protein; not shown: HIS tag
T3 sequence (looked up): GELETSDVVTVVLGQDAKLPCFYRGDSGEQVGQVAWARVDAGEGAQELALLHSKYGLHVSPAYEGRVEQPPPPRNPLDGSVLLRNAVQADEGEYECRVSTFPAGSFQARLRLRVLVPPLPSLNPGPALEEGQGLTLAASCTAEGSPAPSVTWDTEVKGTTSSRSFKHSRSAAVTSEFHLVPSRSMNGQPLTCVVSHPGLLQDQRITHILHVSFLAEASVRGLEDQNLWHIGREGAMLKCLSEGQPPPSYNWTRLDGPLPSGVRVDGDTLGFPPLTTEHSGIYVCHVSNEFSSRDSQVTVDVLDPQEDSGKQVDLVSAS
Experimental: as §1

[5] = molecular target: T3, human Nectin4-HIS tagged recombinant …; experiment: ELISA, coated Nectin4 HIS tagged protein, bispecific titrated, anti-Human HRP
Experimental: (§2) An ELISA assay was developed to determine the EC₅₀ of anti-Nectin4/CD3 bispecific antibodies. Briefly, 384 well plate was immobilized with human CD3E or Nectin4 HIS tagged protein at final concentration of 2 ug/mL in 1×PBS in total volume of 25 uL per well. The plate was incubated overnight at 4° C. followed by blocking with 80 uL of superblock per well for 1 hour. Purified anti-Nectin4/CD3 was 3-fold serial titrated from 100 nM. 25 uL was added to human Nectin4/CD3 immobilized wells and incubated for 1 hour with shaking. The CD3E or Nectin4 binding was detected by adding 25 uL of anti-Human HRP diluted at 1:10000 in 1×PBST. In between each step, the plate was washed 3 times with […] in a plate washer. The plate was then developed with 20 ul of TMB substrate for 5 mins and stopped by adding 20 ul of 2N sulfuric acid. The plate was read at OD450 nm Biotek plate reader and then plotted in Prism 8.1 software to calculate EC50.

[6] = molecular target: T1, human CD3E HIS tagged protein; experiment: ELISA, coated human CD3E HIS tagged protein, bispecific titrated, anti-Human HRP
Experimental: as §2

[7] = molecular target: T4, full-length human Nectin4 with C-terminal flag and Myc tags on CHO cells (human, UniProt Q96NY8 32-510); experiment: flow cytometry on CHO/Nectin4 cells
T4 construct: whole, on cells; also called Nectin4/CHO; CHO/Nectin4; not shown: C-terminal flag and Myc tags of pCMV6-Entry vector
T4 sequence (looked up): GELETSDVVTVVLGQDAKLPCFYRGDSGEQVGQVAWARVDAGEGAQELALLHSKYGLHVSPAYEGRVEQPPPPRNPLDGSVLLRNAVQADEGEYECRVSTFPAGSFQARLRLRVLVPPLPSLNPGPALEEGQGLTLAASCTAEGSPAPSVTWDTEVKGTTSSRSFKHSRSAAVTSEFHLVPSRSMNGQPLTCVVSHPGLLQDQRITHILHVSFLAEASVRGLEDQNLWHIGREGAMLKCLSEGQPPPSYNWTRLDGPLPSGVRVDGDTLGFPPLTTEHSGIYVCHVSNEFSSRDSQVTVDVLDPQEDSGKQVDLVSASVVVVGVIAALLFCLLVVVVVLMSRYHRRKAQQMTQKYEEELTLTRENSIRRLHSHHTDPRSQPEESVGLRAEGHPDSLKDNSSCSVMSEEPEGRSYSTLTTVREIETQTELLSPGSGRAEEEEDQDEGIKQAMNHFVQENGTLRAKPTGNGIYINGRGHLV
Experimental: Nectin4/CHO Nectin4 cells were plated at 100,000 cells/well in a 96-well plate in 50 μL of full media. Cells were rested 1 hour at 37° C. Anti-Nectin4/CD3 was 3-fold serial titrated from 50 nM. 50 μL was added to the cells and incubated for 1 hours with shaking. Samples were washed one time with flow buffer. […] Samples were washed once with flow buffer. Samples were stained with 100 uL Zombie Fixable Viability Dyes (1:800 dilution) per well and incubated in dark at room temperature for 30 mins. Samples were spun down at 1200 rpm for 5 minutes and washed once with 200 uL flow buffer. Reconstituted samples in 200 uL of flow buffer and read on Attune NxT cytometer. EC₅₀ values for Nectin4 Binding were determined using Prism software.

[8] = molecular target: T4, full-length human Nectin4 with …; experiment: flow cytometry, IgG on Nectin4/CHO cells, anti-hFc Alexa fluor 647
Experimental: 200 nM of purified anti-Nectin4 IgG antibodies were diluted in full medium and incubated with Nectin4/CHO and CHO cells in 96 wells plate on ice for 1 hour. Cells were spun down at 1200 rpm for 5 minutes at 4° C. to remove primary antibodies. Cells were then washed once with 200 uL of full medium per well. Samples were detected with anti-hFc Alexa fluor 647 by adding 100 uL of diluted secondary antibody and incubated at 4° C. for 30 minutes in the dark. Samples were spun down at 1200 rpm for 5 minutes at 4° C. and washed twice with 200 uL of 1×PBS per well. Reconstituted samples in 200 uL of 1×PBS and read on Attune NxT cytometer. Analysis was done by Attune NxT software plotting the overlay histogram of […] proteins binding onto both negative and target cell lines.

[9] = molecular target: monkey nectin4 protein (monkey); experiment: ELISA, coated monkey nectin4, IgG titrated, anti-hFc HRP
[10] = molecular target: T3, human Nectin4-HIS tagged recombinant …; experiment: ELISA, coated human Nectin4-HIS, IgG titrated, anti-hFc HRP
Experimental: An ELISA assay was developed to determine the EC₅₀ of exemplary anti-Nectin4 IgG antibodies. Briefly, 384 well plate was immobilized with human Nectin4-HIS tagged recombinant protein at final concentration of 2 ug/mL in 1×PBS in total volume of 25 uL per well. The plate was incubated overnight at 4° C. followed by blocking with 80 uL of superblock per well for 1 hour. Titration of purified anti-Nectin4 IgG starting at 200 nM 2-fold serial dilution, 25 uL was added to human Nectin4 immobilized wells and incubated for 1 hour with shaking. The Nectin4 binding was detected by adding 25 uL of anti-hFc HRP diluted at 1:5000 in 1×PBST. In between each step, the plate was washed 3 times with 1×PBST in a plate washer. The plate was then developed with 20 ul of TMB substrate for 5 mins and stopped by adding 20 ul of 2N sulfuric acid. The plate was read at OD450 nm Biotek plate reader and then plotted in Prism 8.1 software.

[11] = molecular target: T3, human Nectin4-HIS tagged recombinant …; experiment: ELISA, coated human Nectin4-HIS, antibody titrated, anti-hFc HRP
[12] = molecular target: T5, mouse nectin4 protein (mouse, UniProt Q8R007 31-347, limits assumed); experiment: ELISA, coated mouse nectin4, IgG titrated, anti-hFc HRP
T5 sequence (looked up): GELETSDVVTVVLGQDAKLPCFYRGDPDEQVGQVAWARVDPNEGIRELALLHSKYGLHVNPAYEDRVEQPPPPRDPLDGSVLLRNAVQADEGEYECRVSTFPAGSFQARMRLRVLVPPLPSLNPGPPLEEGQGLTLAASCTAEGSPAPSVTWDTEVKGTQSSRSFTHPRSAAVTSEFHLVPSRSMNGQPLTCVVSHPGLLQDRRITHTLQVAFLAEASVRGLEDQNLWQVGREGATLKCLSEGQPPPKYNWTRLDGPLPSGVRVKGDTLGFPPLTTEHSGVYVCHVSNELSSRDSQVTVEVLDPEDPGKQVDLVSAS

[13] = molecular target: T3, human Nectin4-HIS tagged recombinant …; experiment: SPR Biacore T200, IgG captured on Protein A chip, hNectin4-HIS injected
Experimental: Kinetic analysis of anti-Nectin4 IgG has been assessed by the SPR technology with Biacore T200. The assay was run with Biacore T200 control software version 2.0. For each cycle, 1 ug/mL of anti-hNectin4-IgG was captured for 60 seconds at flow rate of 10 ul/min on flow cell 2 in 1×HBSP buffer on Protein A sensor chip. 2-fold serial hNectin4-HIS tagged protein was injected onto both reference flow cell 1 and anti-Nectin4 IgG captured flow cell 2 for 150 seconds at flow rate of 30 ul/mins followed by wash for 300 seconds. The flow cells were then regenerated with Glycine pH2 for 60 seconds at flow rate of 30 ul/mins. 8 concentration points from 100-0 nM was assayed per anti-Nectin4 IgG in a 96 well plate. The kinetics of Anti-Nectin4 IgG binding to Nectin4 protein was analyzed with Biacore T200 evaluation software version 3.0. The specific binding response unit was derived from subtraction of binding to reference flow cell 1 from antibody captured flow cell 2.

[14] = molecular target: T4, full-length human Nectin4 with …; experiment: cell-based or functional assay

T1 sequence (P07766 23-126 limits assumed): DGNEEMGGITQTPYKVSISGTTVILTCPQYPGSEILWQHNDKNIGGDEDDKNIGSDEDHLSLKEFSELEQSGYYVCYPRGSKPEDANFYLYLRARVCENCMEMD

Kd [1]: 2.23 nM
koff [1]: 0.00059 s⁻¹
kon [1]: 265000 M⁻¹ s⁻¹
NFAT reporter EC50 [2]: 0.0038 nM
EC50 [3]: 0.169 nM
Kd [4]: 1.22 nM
koff [4]: 0.00012 s⁻¹
kon [4]: 98800 M⁻¹ s⁻¹
EC50 [5]: 0.019 nM
EC50 [6]: 0.005 nM
EC50 [7]: 0.146 nM
B1: EP369/EP370/EP289 anti-Nectin4/CD3 bispecific antibody (bispecific antibody)
chain: not shown
heavy: EVQLVQSGAEVKKPGASVKVSCKASGYTFTGYYMHWVRQAPGQGLEWMGRINPNSGGTNYAQKFQGRVTMTRDTSISTAYMELSGLRSDDTAVYFCARVTYNIGWYIDYWGQGTLVTVSSASTKGPSVFPLAPSSKSTSGGTAALGCLVKDYFPEPVTVSWNSGALTSGVHTFPAVLQSSGLYSLSSVVTVPSSSLGTQTYICNVNHKPSNTKVDKKVEPKSCDKTHTCPPCPAPEAAGGPSVFLFPPKPKDTLMISRTPEVTCVVVDVSHEDPEVKFNWYVDGVEVHNAKTKPREEQYNSTYRVVSVLTVLHQDWLNGKEYKCKVSNKALGAPIEKTISKAKGQPREPQVCTLPPSRDELTKNQVSLSCAVKGFYPSDIAVEWESNGQPENNYKTTPPVLDSDGSFKLVSKLTVDKSRWQQGNVFSCSVMHEALHNHYTQKSLSLSPGK
light: QAVVTQPPSVSVAPGKTATITCGGNNIGSKGVHWYQQKPGQAPVLVIYYDTDRPSGIPERLSGSNSGNTATLTISRVEAGDEADYYCQVWDSSSDHPVFGGGTKLTVLGQPKANPTVTLFPPSSEELQANKATLVCLISDFYPGAVTVAWKADGSPVKAGVETTKPSKQSNNKYAASSYLSLTPEQWKSHRSYSCQVTHEGSTVEKTVAPTECS
notes: Monovalent format: anti-CD3 sp34 scFv-Fc knob (EP369), EP034-B09 heavy chain hole without ADCC (EP370), EP034-B09 light chain (EP289); also called EP369/370/289

EC50 [8]: 0.0062 nM
EC50 [9]: 0.019 nM
EC50 [10]: 0.018 nM
EC50 [11]: 0.061 nM
EC50 [12]: 0.017 nM
Kd [13]: 1.47 nM
ADCC Bioreporter assay EC50 [14]: 1.16 nM
B2: 2020EP034-B09 IgG (EP299/EP289) (antibody, V domains shown)
VH: EVQLVQSGAEVKKPGASVKVSCKASGYTFTGYYMHWVRQAPGQGLEWMGRINPNSGGTNYAQKFQGRVTMTRDTSISTAYMELSGLRSDDTAVYFCARVTYNIGWYIDYWGQGTLVTVSS
VL: QAVVTQPPSVSVAPGKTATITCGGNNIGSKGVHWYQQKPGQAPVLVIYYDTDRPSGIPERLSGSNSGNTATLTISRVEAGDEADYYCQVWDSSSDHPVFGGGTKLTVLG
notes: Human IgG1 with lambda light chain; entries without signal peptide used; also called EP034-B09, mAb
